# Assay results reported in PMC2783421 (Developmental biology, 2009).
# T1: His6-tagged ERK2 (Dictyostelium discoideum, UniProt Q54QB1 1-369)
# T1 sequence (looked up): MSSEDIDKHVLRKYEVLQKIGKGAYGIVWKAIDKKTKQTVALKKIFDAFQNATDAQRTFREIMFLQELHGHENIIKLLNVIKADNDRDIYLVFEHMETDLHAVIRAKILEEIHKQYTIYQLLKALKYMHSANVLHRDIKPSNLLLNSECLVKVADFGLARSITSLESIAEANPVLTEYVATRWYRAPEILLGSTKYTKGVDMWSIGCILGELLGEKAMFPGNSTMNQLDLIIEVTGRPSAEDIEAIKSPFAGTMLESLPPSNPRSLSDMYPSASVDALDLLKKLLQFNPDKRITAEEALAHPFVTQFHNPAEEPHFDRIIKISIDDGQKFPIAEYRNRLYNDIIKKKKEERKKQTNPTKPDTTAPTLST
# Target: T1, His6-tagged ERK2
# Assay: pull-down
row,Binder,pull-down yield (percent of the cell extract) [%]
1,"Myc-tagged Gα4 subunit (wild type) (natural protein, Dictyostelium discoideum, UniProt P34042 1-345, looked up) MRFKCFGSEETEQSSKIDKSIETDRRKLRKDVKLLLLGPGESGKSTIFKQMKIIQEDGGYSVEELLEYRAFVYSNCISQMEALLTASAKLNIELEVENKQRAANVLRRTIGNEPWLLLAADIKHLWEDKGIKETYAQKDKHFQLNDSAAYFFDNIDRYMREDFVPNEQDVLRCRVRTTGIQESEFTFDKIRLKIVDVGGQRSQRRKWIHCFDCVTAVIFVAAMSDYDQVLREDESVNRTRESLALFKEIVNCDYFKETPIVLFLNKKDLFKEKLKRVPLQSCFSDYTGPNKYKDAAMFIQSQYLAQGPSPRTIYTHATCAVDTENIKFVFRAVRQTILSQALEHF",~22
2,"Myc-tagged Gα4^R107E,R108E subunit (altered D-motif) (natural protein, Dictyostelium discoideum, UniProt P34042 1-345, looked up) MRFKCFGSEETEQSSKIDKSIETDRRKLRKDVKLLLLGPGESGKSTIFKQMKIIQEDGGYSVEELLEYRAFVYSNCISQMEALLTASAKLNIELEVENKQRAANVLEETIGNEPWLLLAADIKHLWEDKGIKETYAQKDKHFQLNDSAAYFFDNIDRYMREDFVPNEQDVLRCRVRTTGIQESEFTFDKIRLKIVDVGGQRSQRRKWIHCFDCVTAVIFVAAMSDYDQVLREDESVNRTRESLALFKEIVNCDYFKETPIVLFLNKKDLFKEKLKRVPLQSCFSDYTGPNKYKDAAMFIQSQYLAQGPSPRTIYTHATCAVDTENIKFVFRAVRQTILSQALEHF",~9
3,"Myc-tagged Gα4^(R107E, R108E, Q200L) subunit (natural protein, Dictyostelium discoideum, UniProt P34042 1-345, looked up) MRFKCFGSEETEQSSKIDKSIETDRRKLRKDVKLLLLGPGESGKSTIFKQMKIIQEDGGYSVEELLEYRAFVYSNCISQMEALLTASAKLNIELEVENKQRAANVLEETIGNEPWLLLAADIKHLWEDKGIKETYAQKDKHFQLNDSAAYFFDNIDRYMREDFVPNEQDVLRCRVRTTGIQESEFTFDKIRLKIVDVGGLRSQRRKWIHCFDCVTAVIFVAAMSDYDQVLREDESVNRTRESLALFKEIVNCDYFKETPIVLFLNKKDLFKEKLKRVPLQSCFSDYTGPNKYKDAAMFIQSQYLAQGPSPRTIYTHATCAVDTENIKFVFRAVRQTILSQALEHF",~4
4,"Myc-tagged constitutively active Gα4^Q200L subunit (natural protein, Dictyostelium discoideum, UniProt P34042 1-345, looked up) MRFKCFGSEETEQSSKIDKSIETDRRKLRKDVKLLLLGPGESGKSTIFKQMKIIQEDGGYSVEELLEYRAFVYSNCISQMEALLTASAKLNIELEVENKQRAANVLRRTIGNEPWLLLAADIKHLWEDKGIKETYAQKDKHFQLNDSAAYFFDNIDRYMREDFVPNEQDVLRCRVRTTGIQESEFTFDKIRLKIVDVGGLRSQRRKWIHCFDCVTAVIFVAAMSDYDQVLREDESVNRTRESLALFKEIVNCDYFKETPIVLFLNKKDLFKEKLKRVPLQSCFSDYTGPNKYKDAAMFIQSQYLAQGPSPRTIYTHATCAVDTENIKFVFRAVRQTILSQALEHF",~9
